Molecular target: CD33 Db-FM (fluorescein-maleimide-labelled anti-CD33 diabody, clone SGN-33) (fluorescein-5-maleimide on the engineered C-terminal cysteine (added after the hexahistidine tag))
Assay: SPR

B1: extracellular domain of CD33, His-tagged protein (domain or fragment)
chain: DPNFWLQVQESVTVQEGLCVLVPCTFFHPIPYYDKNSPVHGYWFREGAIISRDSPVATNKLDQEVQEETQGRFRLLGDPSRNNCSLSIVDARRRDNGSYFFRMERGSTKYSYKSPQLSVHVTDLTHRPKILIPGTLEPGHSKNLTCSVSWACEQGTPPIFSWLSAAPTSLGPRTTHSSVLIITPRPQDHGTNLTCQVKFAGAGVTTERTIQLNVTYVPQNPTTGIFPGDGSGKQETRAGVVH
B1 was tested, and the Kd was 7 nM.

From article PMC11588662 (2024)
